# Measurements reported in patent publication US20160158359A1 (JUNO THERAPEUTICS, published 2016).
# Ends that are not written are not given here.
# Legend:
# [1] = target: T1, HLA-A*03:01 recombinant MHC class I molecule (human); assay: REVEAL MHC-peptide complex stabilisation assay, recombinant HLA-A*03:01
# T1 construct: Recombinant MHC molecule incubated with synthetic peptide
# Procedure: (§1) Specifically, assessment was of a series of overlapping 9-mer peptides derived from the sequence […] (set forth in SEQ ID NO: 7), which contains a portion of the CD28 transmembrane domain and 4-1BB costimulatory domain spanning the junction between the domains (bond joining the two amino acids noted in underline). In addition, a series of overlapping 9-mer peptides of each of a number of different variants of this portion also were assessed, each variant containing a mutation or mutations in this region as described in Example 2.
# (§2) The various 9-mer overlapping peptides were synthesized and their purity tested by MALDI-TOF Mass Spectrometry.
# [2] = target: T2, HLA-A*11:01 recombinant MHC class I molecule (human); assay: REVEAL MHC-peptide binding assay, stabilisation of ternary MHC-peptide complex, recombinant HLA
# T2 construct: Recombinant MHC molecule of a bought assay service
# Procedure: as §1, §2
# [3] = target: T3, HLA-B*08:01 recombinant MHC class I molecule (human); assay: as above
# T3 construct: Recombinant MHC molecule of a bought assay service
# Procedure: as §1, §2
# [4] = target: T4, HLA-B*08:01 (recombinant MHC class I molecule) (human); assay: REVEAL MHC-peptide complex stabilisation assay, recombinant HLA-B*08:01
# T4 construct: Recombinant MHC molecule of the ProImmune REVEAL assay; the test peptide is the third part of the ternary complex
# Procedure: as §1, §2
# [5] = target: T5, recombinant HLA-A*02:01 MHC class I molecule (human); assay: REVEAL MHC-peptide binding assay, stabilisation of ternary complex with recombinant MHC
# T5 construct: Recombinant MHC molecule incubated with each synthetic peptide; the assay measures how far the peptide stabilises the ternary MHC-peptide complex; also called HLA-A2:01
# Procedure: as §1, §2
# [6] = target: T6, recombinant HLA-A*03:01 MHC class I molecule (human); assay: as above
# T6 construct: Recombinant MHC molecule incubated with each synthetic peptide; the assay measures how far the peptide stabilises the ternary MHC-peptide complex
# Procedure: as §1, §2
binder,measurement,setting,value
IFWVQRGSK,In Vitro Score,[1],0.3 % of positive control peptide
WVKRGRKKA (Synthetic 9-mer),In Vitro Score,[2],3.1 % of positive control peptide (set at 100%)
same,In Vitro Score,[3],3.1 % of positive control peptide (set at 100%)
FWVKRGLKK (synthetic 9-mer; the entry already carries the change; also called R32L) [FWVKRGLKK (SEQ ID NO: 63)],In Vitro Score,[4],6.3 % of positive control peptide
"WVQRGNKKS (not fully specified, Synthetic 9-mer; also called K29Q/L35S)",In Vitro Score,[2],5 % of positive control peptide (set at 100%)
same,In Vitro Score,[3],0 % of positive control peptide (set at 100%)
"WVQRGNKKA (not fully specified, Synthetic 9-mer; also called K29Q/L35A)",In Vitro Score,[2],0.8 % of positive control peptide (set at 100%)
same,In Vitro Score,[3],0.7 % of positive control peptide (set at 100%)
"WVQRGNKKS (not fully specified, Variant 9-mer of the CD28-4-1BB junction region) [WVQRGNKKS synthetic 9-mer peptide (overlapping reference peptide 7, K29Q/L35S)]",In Vitro Score,[5],"1.2 score, % of positive control peptide (=100)"
same,In Vitro Score,[6],"0.7 score, % of positive control peptide (=100)"
"WVQRGNKKA (not fully specified, Variant 9-mer of the CD28-4-1BB junction region) [WVQRGNKKA synthetic 9-mer peptide (overlapping reference peptide 7, K29Q/L35A)]",In Vitro Score,[5],"1.9 score, % of positive control peptide (=100)"
same,In Vitro Score,[6],"1.2 score, % of positive control peptide (=100)"
"WVKRGRKKA (Variant 9-mer of the CD28 transmembrane / 4-1BB costimulatory junction region of a CAR) [WVKRGRKKA synthetic 9-mer peptide (overlapping reference peptide 7, L35A)]",In Vitro Score,[5],"4.5 score, % of positive control peptide (=100)"
same,In Vitro Score,[6],"0.9 score, % of positive control peptide (=100)"
"AFIIFWVRR (Variant 9-mer of the CD28-4-1BB junction region) [AFIIFWVRR synthetic 9-mer peptide (overlapping reference peptide 2, K29R)]",In Vitro Score,[5],"1.4 score, % of positive control peptide (=100)"
AFIIFWVRR (Synthetic 9-mer),In Vitro Score,[2],1.5 % of positive control peptide (set at 100%)
same,In Vitro Score,[3],0.3 % of positive control peptide (set at 100%)
